# From the supplement of paper PMC9170038
# System: K4 kissing-loop RNA reporter
# Test: apparent KD of K4 kissing-loop reporter; higher = weaker reporter binding
# Settings: Eterna round: R107
# Protocol: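 RNA-MaP round R107: designed RNA switches with theophylline, tryptophan, arginine or FMN aptamers are transcribed on-chip within common flanks. They are titrated with a labelled K4 kissing-loop RNA reporter in RNA-MaP buffer (100 mM Tris pH 7.5, 80 mM KCl, 4 mM MgCl2), without ligand or with the indicated ligand. Median apparent KD per design.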
# [1] = input ligand: theophylline 20 uM
# [2] = input ligand: tryptophan 2.4 mM
# 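Note: bound reporter read as fluorescence of individual clusters on recovered sequencing chips by microscopy, with normalized cluster intensities fitted with a binding model.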
Sequence,apparent KD of K4 kissing-loop reporter (input ligand: FMN 200 uM) [nM],apparent KD of K4 kissing-loop reporter (input ligand: arginine 13.2 mM) [nM],apparent KD of K4 kissing-loop reporter (input ligand: none) [nM],apparent KD of K4 kissing-loop reporter [1] [nM],apparent KD of K4 kissing-loop reporter [2] [nM]
UAGACCAGUGAUGUUGGUUCCAAGACGGAUACCAGACUGGCAGAAGUCCCUUGGCAGCUGUAGACCUUGUGAGCUACAAGGUCGG [Theo A SS t2],923,184,440,170,295
AUGCGCGUGCGAUGUAAAUCGCACGCGCAUCGAGGACCGGUACGGCCGCCACUCGCUCGCGCCGAGUGAUGUUCGGCCGGCGAAC [#2 Same State - Tryptophan A Attempt #5 (HarryS)],442,278,527,454,476
GCCAGUGAUGUUGGCAUUUCGAGCCAUGAAGGAGCGCACGGAAGUGCAGGUAGGUCGCAUGGUACUUAAGAUAUUAUCCUAAGUA [Atceis],210,162,192,177,129
GCAUGCAUGGCAGGAUAUAAUCUGGAGUGAUGUUCCUUUAACCUUUCGAACGGCGAGCCAGGUUGAUUAGAAGGGCCAUGCAUGC,435,476,622,628,530
AGAAAGAAGGCGGCCGCCACUCUGAUGGGCGAAAGCCCAUUUUUUUAGCAGUGAUGUUGCUUGUUGAGGACCGGGCCAAAGAAAU [2nd],179,174,155,193,114
CUCAGAAAGACUGUCCAAGUGAUGUUUGGACGAGGACCGGUACGGCCGCCACUCGCUGUUGCGAAUGUUAAGGUACGAGUCGCGG [theeternabot_exclusion_KL_Trp_A_30],84.8,89.7,89.1,101,91.7
UGGGAUGGUUCGGCCGCCACUAUGGUGCAGUGAUGUUGCAUCGUAGUAAAUCAUUCCAUUUACCGUAGGACCGGGAACCUUACGC [Mavelege],108,82.7,94.9,83.4,86.2
GUAUCGCUAGGAGGAUAUUUCAAUCUGACUCUUUGAGUUAGUACGGAGUGAUGUUCCGAUUUACGGAAAGAAGGCCUAGUGAUAC [FMN B 11],142,312,378,264,299
GGAUAGGACAGAGGAUAUGGUAGUGAUGUUACCACGAGACAAAGUCUCGAAAAGCUACAAAGUAGCCCAGAAGGCUGUCCUAUCG [FmnBX 25 #SwitchBubble #StaticStem #Palindromic],402,116,130,114,127
GGCAUGCAUGGAAACAUGCAUGCCAUGCCUCGAGGACCGGUACGGCCGCCACUCGUUAAAAGAAAUGCCAGUGAUGUUGGCCGAA,443,430,528,500,175
GCAGUGAUGUUGCGGAUGUACAGUGGGAUACGAGGACCGGUACGGCCGCCACUCGUACAGAACAAGCUAAUACAUCGAUAGGUGA [XII],265,281,339,373,301
UAUAUAGUGAUGUUAUAUAUACAUUCGGAAGGAGCGUGGUAAAACACAGGUAGGUCGCUGAAAUAAUUAAAAUAAUUUUCUUUUU [AstrosSSArgA#1],255,231,279,239,231
CCAUCGCUAUUCGAUACCAGUCUUUUUUAUUUAUAAAAUCUGCAAAGGAGUGAUGUUCCAGACCCUUGGCAGCGAAUAGUGAUGG [Theophylline B K4 3],401,441,464,570,459
UGAUACCAGACGGCCGCCACUCCUGCAAGUCAAAGACUUGCUAAGGAAAUCGUCCAGUGAUGUUGGAGGACCGGGUCUGGUAUCU [TrypBX 17 #SwitchBubble #Palindromic #StaticStem],931,670,830,717,899
UCUUGUUCAUAGUGAUGUUAUGAGCUUAGAAAGGAUAUGAUCAACAUCAGAAGGUUCAAGGAUUCCCGACUCCAACUUCGGUUUC [theeternabot_sameState_KL_FMN_A_43],280,270,306,339,332
GCGGGCCCGGGAGGAUAUGAGUCGAGUGAUGUUCGGCGGUCCAUGCCGUUGCGGCGUUAAGCCCUUUUAGAAGGCCCGGGCCCGC [#2 Exclusion - FMN B Attempt #2 (HarryS)],208,137,161,138,184
AUGGUGGAUCAGUGAUGUUGGUGGAGUACGUAGGAUAUGAGUGAUGUUAGAAGGAUGGGAGUGAUGUUCCAGGUGGUUGUGUUGU [KL-SSFMN-A1],557,364,652,507,492
CUGAGCCUGACGCAAGUCAGGCUCUGCGAGCGAGGACCGGUACGGCCGCCACUCGGUGCAGUGAUGUUGCAUGGCCGCAAGGCCG [#2 Exclusion - Tryptophan A Attempt #21 (HarryS)],254,215,274,218,306
CUAUGGAAACAUAGGAAUCGGGAAACCGAUACCAGUAUGGAAACAUACCCUUGGCAGCGGAAUGAUUCAACGGAGUGAUGUUCCG [Theophylline A K4 20],395,327,399,293,321
AGGUCCGAGCCCGUAAGGGCUCGGACCUGUUAGGAUAUGACGUUAUUCAGAAGGGAUGGGUGGAGUGAUGUUCCACCCGCAAGGG [#2 Same State - FMN A Attempt #10 (HarryS)],98.8,102,93.2,91.7,95.7
ACCUAGUACGUAGGAUAUCGAACAUCAUUUAGUGAGAUCGAGUGAUGUUCGAUCACGUCUUCAGUUCGAGAAGGACGUACUAGGA [FMN B SS t4],335,273,302,477,351

Sequence,apparent KD of K4 kissing-loop reporter (input ligand: FMN 200 uM) [nM],apparent KD of K4 kissing-loop reporter (input ligand: arginine 13.2 mM) [nM],apparent KD of K4 kissing-loop reporter (input ligand: none) [nM],apparent KD of K4 kissing-loop reporter [1] [nM],apparent KD of K4 kissing-loop reporter [2] [nM]
ACGGGCGGCUGAAGGAGCGGGCGGGCCCGAGUGAUGUUCGGGUGGGCCGUGAGGUCCGGAGCCCAGGUAGGUCGCGGUUCCGCCU [#2 Same State - Arginine B Attempt #14 (HarryS)],157,119,152,197,181
AGGCACGAGCAAGGAUAUCGAGUAGAGUGAUGUUCUGCCUGGGUUGGCGCGUAAGGGCCUUCCCAGCGAGAAGGUGCUCGUGCCU [#2 Same State - FMN A Attempt #12 (HarryS)],253,681,939,677,660
CAGUUCUAUUCCGGUAGUGAUGUUACCAAGCGAGGACCGGUACGGCCGCCACUCGAGUGACAGACGUACUGGUAUCACCCGCUUC,159,172,164,186,142
UCAUCGGUACAAGGAUAUUAGAGGUAGUGAUGUUACCCGUUUUUUAUACAUCGAUGUCACCCUAACUAAGAAGGUGUUCAAACUU [theeternabot_exclusion_KL_FMN_B_7],62.5,52.7,50.2,54,38.4
UUAUCUAUAUUCGAUACCAGUACCCUGUGUGUUGAUCCUUUUAUAAGUGAUGUUUAUGAGUACCCUUGGCAGCGGGUAUGGGUUU [KL-XTheo-B17],815,734,883,944,712
AGAUUCGACACGGCCGCCACUCGUGGUGGAUUACCUAGUGUCGAAGUUGAGUGAUGUUCAACUACGAGGACCGGGUGUUGAGUCU [KL-XTryp-B7 #analogue],253,161,215,211,448
CGUCACAAACCUAGUCAAGUGAUGUUUGGCCGAGGACCGGUACGGCCGCCACUCGCUCCUGUCACCCAUUCGUGUGUCGCGGACU [theeternabot_exclusion_KL_Trp_A_5],377,148,316,473,297
UAAUUUAUGUCUUUAAUUUAAUAAUCAGAUACCAGUGAUUUAUGACACCCUUGGCAGCUGUAUUGAGUGAUGUUCUUAUACUUAA [JR_Nu_ExcTheophyA_Sub021],131,169,171,212,101
AGGCCCGGCCGAAAGGCCGGGCCAAGAGAUACCAGCAGCGAAAGCUGCCCUUGGCAGCUCACUUAGUGAUGUUAAGAGAUAAAUG [SS Theo A Tesla 1.2],365,353,294,424,279
AGUUCCUCUGUCGAUACCAGCUUCAGUUGGCGGCCAGUGAUGUUGGUAUCGCCGAUGCCAAGCCCUUGGCAGCGACAUGAGACCC [Lausso],188,187,169,111,197
UACUGGGCGAGUGAUGUUCGCUCACGUGAUACCAGUGCCAUCCAACACCCUUGGCAGCACGCGGGCAGUGAUGUUGUCCUUGUAU [Exclusion Theophylline A GF 5],127,112,123,129,111
UUUGUAUCGGGAAGGAGCGUGAAUGAUAAUGGAUAUAGUGAUGUUAUAUAUAAGAACGAAUCGCAGGUAGGUCGCCCGGAUGACU [SSArgB.Q],431,388,413,400,252
UAUUAAUUGUCAGGAUAUCGUAUUCGAGUGAUGUUCGUAUAUCGACGAUAGUCGAUAUUAUUUAUACGAGAAGGGACAUUAUUUA [JR_SSFMNB_Sub005],292,260,330,274,285
AAACAUUGGUCGGAUACCAGCUUGAUCGGAAAACGAUCUGCUGGAGUGAUGUUCCAAUAAAGCCCUUGGCAGCCGACCGAUGAAA [MAT - Same State Theophlline B - Mod of Eli - D14],814,679,1070,747,780
GGGCCUCUGGCUGAUACCAGUGAUAAAGGGUAAGAGACAGGGAGUGAUGUUCCCUUUAGCCACCCUUGGCAGCAGUUUAAGUUUG [Exclusion Theophylline B GF 18],84.8,82.8,85.5,86.6,77.3
GCCGUACGCAUGGAUACCAGUCUUAGAGUGAUGUUCUAUACGAUUGCGCCUGGAUCAAUGGACCCUUGGCAGCCAUGCGUACGGC,144,112,123,114,124
GAACCAGAGGUUGCUGCGGGUUCCAGAGAUACCAGCCGUAUUGAAGGCCCUUGGCAGCUCGAGUGAUGUUCGAGCCGCCUCUGGC [Antius],118,96.8,120,103,103
UUCUGCAUCUCGGCCGCCACUCACUAGUGAUGUUAGUAAGGAGCGACUAGACAUGUCCCGUUGUUGAGGACCGGGAGAGGCUCUU [#14 K4 Tryptophan B Exclusion],156,164,164,191,170
UCCUGCAAUCGUCCACGAAAGUGGAUUGAUACCAGAGUCGAAAGACUCCCUUGGCAGCGAGUGAUGUUCGAAGCAGGUAAAUAAA,432,365,417,363,337
AGGAAGUGAGAAGGAUAUUACACUCGGAAGCGCUAGUGAUGUUAGCAUAGAAACAAGGGAACAUGGUAAGAAGGUCUUACAAUGA [theeternabot_sameState_KL_FMN_B_2],76.6,71.6,38.9,69.5,40.1
AAGAGGUAGGCGGCCGCCACUAGUUGUGAACACAUACAAGCCAGUGAUGUUGGUAUGGUGGGCGGUAGGACCGGGCCUACCUGAA [Exclusion - Tryptophan B (Freestyle 17)],230,263,257,250,243
